T1: Ac-NPNVDPNANPNV-NH2 peptide (Plasmodium falciparum CSP repeat …)
T1 chain: Ac-NPNVDPNANPNV-NH2

T2: Ac-DPNANPNVDPNA-NH2 peptide (Plasmodium falciparum CSP repeat …)
T2 chain: Ac-DPNANPNVDPNA-NH2

B1: Fab311 (Fab, V domains shown)
VH: QVQLVESGGGVVPPGRSLRLSCATSGFTFSNYGMHWVRQAPGKGLEWVAIIWYDGSRNFYAASVEGRFTISRDNSKNTLYLQMNSLRVEDTAVYYCARAAYYDTSGYGDYWGQGTLVTVSS
VL: QSVLTQPPSVSGAPGQTVTISCTGGSSNIGAGYDVHWYQQLPGTAPKLLIYGNINRPSGVPDRFSGSKSGTSASLAITGLQAEDEADYYCQSYDRRLSGSWVFGGGTKLTVL
B2: Fab317 (Fab, V domains shown)
VH: QMQLVESGGGVVQPGRSLRLSCTASGFTFSTYAMHWVRQSPGQGLQWVAVISYHSTNKYYEDSVRGRFTISRDNSKNTLYLQMNSLRAEDTAVYYCARDGYSSSFFDFWGQGTLVTVSS
VL: DIQMTQSPSTLSASVGDRVAITCRASQSISRWLAWYQQQPGKAPKLLMSGASVLESGVPSRFSGSGSGTEFTLTISSLQPDDFATYYCQHYNSYFVTFGQGTKVEIK

Experiments:
Assay in all cases: ITC; MicroCal Auto-iTC200; triplicate (or duplicate) experiments; details in SI
Conditions in all cases: both partners purified
[1] = target: T3, (NPNA)3 peptide, Ac-[residues removed]-NH2 (Plasmodium falciparum CSP repeat …)
T3 construct: also called 12-mer

(NPNA)2 peptide = (NPNA)2 peptide (Plasmodium falciparum CSP repeat …)
[2] = target: T1, Ac-NPNVDPNANPNV-NH2 peptide
[3] = target: T2, Ac-DPNANPNVDPNA-NH2 peptide

Binder	Kd [1] [nM]	dH [1] [kcal/mol]	stoichiometry N [1]	Kd ((NPNA)2 peptide) [nM]	dH ((NPNA)2 peptide) [kcal/mol]	stoichiometry N ((NPNA)2 peptide)	Kd [2] [nM]	dH [2] [kcal/mol]	stoichiometry N [2]	Kd [3] [nM]	dH [3] [kcal/mol]	stoichiometry N [3]
B1	305	-29.8	0.74	296	-16.4	1.5	1790	-18.7	1.24	1370	-20.2	1.2
B2	78	-15.7	1.27	173	-12.1	1.41				448	-9.39	1.64

Reference: paper PMC5715787, “Structural basis for antibody recognition of the NANP repeats in Plasmodium falciparum circumsporozoite protein” (Proceedings of the National Academy of Sciences of the …, 2017)
